Measurements taken from doi:10.1101/2025.10.27.684836 (bioRxiv, 2025).

Tests used:
[1] = biological target: His-MBP-SALL4(QID-ZFC4) fusion protein (mouse); test: SEC-MALS
SALL4 QID-ZFC4 = biological target: T1, SALL4 QID-ZFC4 (UniProt Q8BX22 201-240+870-940, internal_change); test: SPR
T1 sequence: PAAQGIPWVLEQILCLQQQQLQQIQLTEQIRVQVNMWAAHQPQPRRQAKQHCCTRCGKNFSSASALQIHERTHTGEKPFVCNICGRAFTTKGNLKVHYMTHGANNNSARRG

SEC-MALS = biological target: the molecule itself; test: SEC-MALS

In the case of “His-MBP-SALL4(QID-ZFC4) fusion protein (domain or fragment)”, the stoichiometry N [1] is reported as 4.

B1: SPR probe, single ATATTA motif (dsDNA)
DNA 1: AGCAGGCCTAATATCGCAC
DNA 2: GTGCGATATTAGGCCTGCT
B1: binds (SALL4 QID-ZFC4).

In the case of GAEAPMAPMPAAQGIPWVLEQILCLQQQQLQQIQLTEQIRVQVNMW (domain or fragment, mouse, UniProt Q8BX22 192-237, looked up) [recombinant SALL4 QID (192-237) peptide], the “stoichiometry N” value (SEC-MALS) is reported as 4.
